# Assay results as given in patent publication EP4782541A1 (Nanjing Probio Biotech Co., Ltd., dated 2026).
# B1: BsAb-1 (bispecific antibody, human IgG1, lambda)
# chain: EVQLVESGGGLVQPGGSLRLSCAASGFISRFYAMGWYRQAPGKQRELVARISSMGWTYYADSVKGRFTISIDNSKNTLYLQMNSLRAEDTAVYYCNARNLWGQGTLVTVSSDKTHTCPPCPAPESTRGPSVFLFPPKPKDTLMISRTPEVTCVVVDVSHEDPEVKFNWYVDGVEVHNAKTKPREEQYNSTYRVVSVLTVLHQDWLNGKEYKCKVSNKALPAPIEKTISKAKGQPREPQVCTLPPSRDELTKNQVSLSCAVKGFYPSDIAVEWESNGQPENNYKTTPPVLDSDGSFFLVSKLTVDKSRWQQGNVFSCSVMHEALHNHYTQKSLSLSPGK
# heavy: EVQLVESGGGLVQPGRSLRLSCAASGFTFNTYAMNWVRQAPGKGLEWVARIRSKYNNYATYYADSVKDRFTISRDDSKSIAYLQMNSLKTEDTAVYYCVRHGNFGNSYVSWFAYWGQGTLVTVSSASTKGPSVFPLAPSSKSTSGGTAALGCLVKDYFPEPVTVSWNSGALTSGVHTFPAVLQSSGLYSLSSVVTVPSSSLGTQTYICNVNHKPSNTKVDKKVEPKSCDKTHTCPPCPAPESTRGPSVFLFPPKPKDTLMISRTPEVTCVVVDVSHEDPEVKFNWYVDGVEVHNAKTKPREEQYNSTYRVVSVLTVLHQDWLNGKEYKCKVSNKALPAPIEKTISKAKGQPREPQVYTLPPCRDELTKNQVSLWCLVKGFYPSDIAVEWESNGQPENNYKTTPPVLDSDGSFFLYSKLTVDKSRWQQGNVFSCSVMHEALHNHYTQKSLSLSPGK
# light: QTVVTQEPSLTVSPGGTVTLTCRSSTGAVTTSNYANWVQQKPGQAPRGLIGGTNKRAPGVPARFSGSLLGGKAALTLSGVQPEDEAEYFCALWYSNLWVFGGGTKLTVLGQPKAAPSVTLFPPSSEELQANKATLVCLISDFYPGAVTVAWKADSSPVKAGVETTTPSKQSNNKYAASSYLSLTPEQWKSHRSYSCQVTHEGSTVEKTVAPTECS
# notes: human IgG1 Fc with L234S/L235T/G236R; also called BsAb-01
# B2: BsAb-16 (bispecific antibody, human IgG1, lambda)
# chain: EVQLVESGGGLVQPGGSLRLSCAASGRSFSSFQMGWFRQAPGKEREFVAASGWSGGPTYYWDSVIGRFTISTDNSKNTLYLQMNSLRAEDTAVYYCYEDRVLSGRHVRYWGQGTLVTVSSGGGGSGGGGSGGGGSEVQLVESGGGLVQPGGSLRLSCAASGRSFSSFQMGWFRQAPGKEREFVAASGWSGGPTYYWDSVIGRFTISTDNSKNTLYLQMNSLRAEDTAVYYCYEDRVLSGRHVRYWGQGTLVTVSSDKTHTCPPCPAPESTRGPSVFLFPPKPKDTLMISRTPEVTCVVVDVSHEDPEVKFNWYVDGVEVHNAKTKPREEQYNSTYRVVSVLTVLHQDWLNGKEYKCKVSNKALPAPIEKTISKAKGQPREPQVCTLPPSRDELTKNQVSLSCAVKGFYPSDIAVEWESNGQPENNYKTTPPVLDSDGSFFLVSKLTVDKSRWQQGNVFSCSVMHEALHNHYTQKSLSLSPGK
# heavy: B1 heavy
# light: B1 light
# B3: BsAb-6 (bispecific antibody, human IgG1, lambda)
# chain: EVQLVESGGGLVQPGGSLRLSCAASYFISRFYAVGWYRQAPGKQRELVARISSGGWTYYADSVKGRFTISIDNSKNTLYLQMNSLRAEDTAVYYCNARNLWGQGTLVTVSSGGGGSGGGGSGGGGSEVQLVESGGGLVQPGGSLRLSCAASYFISRFYAVGWYRQAPGKQRELVARISSGGWTYYADSVKGRFTISIDNSKNTLYLQMNSLRAEDTAVYYCNARNLWGQGTLVTVSSDKTHTCPPCPAPESTRGPSVFLFPPKPKDTLMISRTPEVTCVVVDVSHEDPEVKFNWYVDGVEVHNAKTKPREEQYNSTYRVVSVLTVLHQDWLNGKEYKCKVSNKALPAPIEKTISKAKGQPREPQVCTLPPSRDELTKNQVSLSCAVKGFYPSDIAVEWESNGQPENNYKTTPPVLDSDGSFFLVSKLTVDKSRWQQGNVFSCSVMHEALHNHYTQKSLSLSPGK
# heavy: B1 heavy
# light: B1 light
# notes: also called BsAb-06
# B4: BsAb-7 (bispecific antibody, human IgG1, lambda)
# chain: QVQLVESGGGVVQPGGSLRLSCAASGFVLRVNTVSWYRQAPGKQRELVALITSESNEYYDDSVKGRFTISRDNAKNTIYLHMNSLKPEDTGVYFCNFITTWGQGTQVTVSSGGGGSGGGGSGGGGSQVQLVESGGGVVQPGGSLRLSCAASGFVLRVNTVSWYRQAPGKQRELVALITSESNEYYDDSVKGRFTISRDNAKNTIYLHMNSLKPEDTGVYFCNFITTWGQGTQVTVSSDKTHTCPPCPAPESTRGPSVFLFPPKPKDTLMISRTPEVTCVVVDVSHEDPEVKFNWYVDGVEVHNAKTKPREEQYNSTYRVVSVLTVLHQDWLNGKEYKCKVSNKALPAPIEKTISKAKGQPREPQVCTLPPSRDELTKNQVSLSCAVKGFYPSDIAVEWESNGQPENNYKTTPPVLDSDGSFFLVSKLTVDKSRWQQGNVFSCSVMHEALHNHYTQKSLSLSPGK
# heavy: B1 heavy
# light: B1 light
# notes: also called BsAb-07
# B5: BsAb-11 (bispecific antibody, human IgG1, lambda)
# chain: QVQLVESGGGVVQPGGSLRLSCAASGFVLRVNTVSWYRQAPGKQRELVALITSESNEYYDDSVKGRFTISRDNAKNTIYLHMNSLKPEDTGVYFCNFITTWGQGTQVTVSSDKTHTCPPCPAPESTRGPSVFLFPPKPKDTLMISRTPEVTCVVVDVSHEDPEVKFNWYVDGVEVHNAKTKPREEQYNSTYRVVSVLTVLHQDWLNGKEYKCKVSNKALPAPIEKTISKAKGQPREPQVCTLPPSRDELTKNQVSLSCAVKGFYPSDIAVEWESNGQPENNYKTTPPVLDSDGSFFLVSKLTVDKSRWQQGNVFSCSVMHEALHNHYTQKSLSLSPGK
# heavy: QVQLVESGGGVVQPGGSLRLSCAASGFVLRVNTVSWYRQAPGKQRELVALITSESNEYYDDSVKGRFTISRDNAKNTIYLHMNSLKPEDTGVYFCNFITTWGQGTQVTVSSGGGGSGGGGSGGGGSEVQLVESGGGLVQPGRSLRLSCAASGFTFNTYAMNWVRQAPGKGLEWVARIRSKYNNYATYYADSVKDRFTISRDDSKSIAYLQMNSLKTEDTAVYYCVRHGNFGNSYVSWFAYWGQGTLVTVSSASTKGPSVFPLAPSSKSTSGGTAALGCLVKDYFPEPVTVSWNSGALTSGVHTFPAVLQSSGLYSLSSVVTVPSSSLGTQTYICNVNHKPSNTKVDKKVEPKSCDKTHTCPPCPAPESTRGPSVFLFPPKPKDTLMISRTPEVTCVVVDVSHEDPEVKFNWYVDGVEVHNAKTKPREEQYNSTYRVVSVLTVLHQDWLNGKEYKCKVSNKALPAPIEKTISKAKGQPREPQVYTLPPCRDELTKNQVSLWCLVKGFYPSDIAVEWESNGQPENNYKTTPPVLDSDGSFFLYSKLTVDKSRWQQGNVFSCSVMHEALHNHYTQKSLSLSPGK
# light: B1 light
# B6: BsAb-15 (bispecific antibody, human IgG1, lambda)
# chain: EVQLVESGGGLVQPGGSLRLSCAASGRSFSSFQMGWFRQAPGKEREFVAASGWSGGPTYYWDSVIGRFTISTDNSKNTLYLQMNSLRAEDTAVYYCYEDRVLSGRHVRYWGQGTLVTVSSDKTHTCPPCPAPESTRGPSVFLFPPKPKDTLMISRTPEVTCVVVDVSHEDPEVKFNWYVDGVEVHNAKTKPREEQYNSTYRVVSVLTVLHQDWLNGKEYKCKVSNKALPAPIEKTISKAKGQPREPQVCTLPPSRDELTKNQVSLSCAVKGFYPSDIAVEWESNGQPENNYKTTPPVLDSDGSFFLVSKLTVDKSRWQQGNVFSCSVMHEALHNHYTQKSLSLSPGK
# heavy: B1 heavy
# light: B1 light
# Legend:
# [1] = biological target: human ROR1 (on CHO-K1/ROR1 cells and ROR1 tumour cell lines) (human) (UniProt Q01973); assay: cell-based or functional assay
# human ROR1 (on CHO-K1/ROR1 cells and ROR1 tumour cell lines) (human), sequence (Q01973 30-937): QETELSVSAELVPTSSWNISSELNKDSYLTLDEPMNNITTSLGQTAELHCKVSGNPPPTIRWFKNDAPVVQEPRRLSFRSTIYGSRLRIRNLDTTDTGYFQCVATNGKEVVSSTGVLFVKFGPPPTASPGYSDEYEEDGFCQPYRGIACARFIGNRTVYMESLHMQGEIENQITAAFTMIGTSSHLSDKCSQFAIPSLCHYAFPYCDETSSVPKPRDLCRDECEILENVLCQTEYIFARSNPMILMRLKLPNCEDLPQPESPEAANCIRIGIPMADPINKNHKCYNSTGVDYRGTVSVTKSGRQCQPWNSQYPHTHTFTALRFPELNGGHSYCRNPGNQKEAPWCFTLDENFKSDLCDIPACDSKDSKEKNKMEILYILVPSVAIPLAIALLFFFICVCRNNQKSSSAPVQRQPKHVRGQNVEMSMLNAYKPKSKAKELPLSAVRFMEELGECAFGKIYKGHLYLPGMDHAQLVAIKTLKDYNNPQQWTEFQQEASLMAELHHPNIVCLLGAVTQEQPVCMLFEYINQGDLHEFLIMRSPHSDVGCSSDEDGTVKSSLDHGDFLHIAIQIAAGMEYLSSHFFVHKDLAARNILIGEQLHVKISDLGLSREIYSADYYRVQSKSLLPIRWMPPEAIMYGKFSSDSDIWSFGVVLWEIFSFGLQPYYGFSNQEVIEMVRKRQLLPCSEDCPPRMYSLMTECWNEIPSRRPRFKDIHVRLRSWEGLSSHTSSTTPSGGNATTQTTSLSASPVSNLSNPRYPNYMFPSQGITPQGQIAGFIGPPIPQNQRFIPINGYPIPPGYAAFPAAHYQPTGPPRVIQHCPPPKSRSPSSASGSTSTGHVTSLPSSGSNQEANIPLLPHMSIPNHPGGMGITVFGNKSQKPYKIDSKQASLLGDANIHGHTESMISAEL
# human ROR1 protein [2] = biological target: T1, human ROR1 protein (human, UniProt Q01973 30-403, limits assumed); assay: SPR (Biacore 8K); human ROR1 amine-coupled at 0.05 ug/mL as ligand, antibody as analyte
# T1 construct: Recombinant antigen of the SPR assay; also called ROR1 (SPR ligand)
# T1 sequence (Q01973 30-403 limits assumed): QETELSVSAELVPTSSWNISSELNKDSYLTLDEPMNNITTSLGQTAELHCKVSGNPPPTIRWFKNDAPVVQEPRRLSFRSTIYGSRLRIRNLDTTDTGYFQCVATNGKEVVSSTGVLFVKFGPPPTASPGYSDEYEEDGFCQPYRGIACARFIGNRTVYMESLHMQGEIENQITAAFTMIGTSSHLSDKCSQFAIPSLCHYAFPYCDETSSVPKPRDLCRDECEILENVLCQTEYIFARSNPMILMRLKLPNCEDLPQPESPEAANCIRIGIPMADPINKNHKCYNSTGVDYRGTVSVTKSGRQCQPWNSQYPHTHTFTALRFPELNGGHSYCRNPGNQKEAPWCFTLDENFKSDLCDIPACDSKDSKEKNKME
# human ROR1 protein [3] = biological target: T1, human ROR1 protein; assay: SPR (Biacore 8K); human ROR1 amine-coupled at 0.10 ug/mL as ligand, antibody as analyte
# human ROR1 protein [4] = biological target: T1, human ROR1 protein; assay: SPR (Biacore 8K); human ROR1 amine-coupled at 0.50 ug/mL as ligand, antibody as analyte
# human ROR1 protein [5] = biological target: T1, human ROR1 protein; assay: SPR (Biacore 8K); human ROR1 amine-coupled at 2.50 ug/mL as ligand, antibody as analyte
# human ROR1 protein [6] = biological target: T1, human ROR1 protein; assay: SPR (Biacore 8K); human ROR1 amine-coupled at 12.50 ug/mL as ligand, antibody as analyte
# human ROR1 protein [7] = biological target: T1, human ROR1 protein; assay: SPR (Biacore 8K); human ROR1 amine-coupled at 62.50 ug/mL as ligand, antibody as analyte
# [8] = biological target: T2, human CD3 (on Jurkat cells) (human, UniProt P07766 23-207; P09693 23-182; P04234 22-171); assay: flow cytometry on Jurkat cells expressing human CD3
# T2 construct: whole, on cells
# T2 sequence (P07766 23-207, chain 1 of 3): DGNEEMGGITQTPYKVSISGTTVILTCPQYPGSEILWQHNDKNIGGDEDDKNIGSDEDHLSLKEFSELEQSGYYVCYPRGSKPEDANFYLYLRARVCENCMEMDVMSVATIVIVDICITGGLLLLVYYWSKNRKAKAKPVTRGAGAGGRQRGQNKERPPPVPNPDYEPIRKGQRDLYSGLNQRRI
# T2 sequence (P09693 23-182, chain 2 of 3): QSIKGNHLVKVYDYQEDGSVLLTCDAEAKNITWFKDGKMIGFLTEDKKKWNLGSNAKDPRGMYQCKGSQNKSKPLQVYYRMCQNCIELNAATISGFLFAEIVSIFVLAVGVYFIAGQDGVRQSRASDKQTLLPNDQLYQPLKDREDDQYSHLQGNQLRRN
# T2 sequence (P04234 22-171, chain 3 of 3): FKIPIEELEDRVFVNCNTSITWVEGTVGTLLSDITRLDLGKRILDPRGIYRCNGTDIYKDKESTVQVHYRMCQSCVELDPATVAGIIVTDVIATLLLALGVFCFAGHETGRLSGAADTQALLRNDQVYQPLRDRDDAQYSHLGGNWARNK
# [9] = biological target: T3, human ROR1 (on CHO-K1/ROR1 cells and ROR1 tumour cell lines) (human, UniProt Q01973 30-937); assay: flow cytometry on CHO-K1/ROR1 cells overexpressing human ROR1
# T3 construct: whole, on cells; also called receptor tyrosine kinase-like orphan receptor 1
# T3 sequence (Q01973 30-937): as the sequence (Q01973 30-937) above
molecule,measurement,setting,value
NVG-111 (bispecific antibody),"EC50 of T cell activation based on reporter gene (luciferase), target cells A375",[1],32.9 pM
same,"EC50 of T cell activation based on reporter gene (luciferase), target cells Jeko-1",[1],35.8 pM
same,"EC50 of T cell activation based on reporter gene (luciferase), target cells MDA-MB-231",[1],10 pM
same,Kd,human ROR1 protein [2],2590 pM
same,koff,human ROR1 protein [2],0.00138 s⁻¹
same,kon,human ROR1 protein [2],532000 M⁻¹ s⁻¹
same,Kd,human ROR1 protein [3],1820 pM
same,koff,human ROR1 protein [3],0.00113 s⁻¹
same,kon,human ROR1 protein [3],622000 M⁻¹ s⁻¹
same,Kd,human ROR1 protein [4],1920 pM
same,koff,human ROR1 protein [4],0.00122 s⁻¹
same,kon,human ROR1 protein [4],632000 M⁻¹ s⁻¹
same,Kd,human ROR1 protein [5],1640 pM
same,koff,human ROR1 protein [5],0.00118 s⁻¹
same,kon,human ROR1 protein [5],723000 M⁻¹ s⁻¹
same,Kd,human ROR1 protein [6],1490 pM
same,koff,human ROR1 protein [6],0.00109 s⁻¹
same,kon,human ROR1 protein [6],733000 M⁻¹ s⁻¹
same,Kd,human ROR1 protein [7],1710 pM
same,koff,human ROR1 protein [7],0.00101 s⁻¹
same,kon,human ROR1 protein [7],593000 M⁻¹ s⁻¹
B1,EC50,[8],384 pM
same,EC50,[9],287 pM
B2,EC50,[8],469 pM
B3,EC50,[8],1180 pM
B4,EC50,[8],526 pM
B5,EC50,[8],4000 pM
B6,EC50,[8],743 pM
